Assay results from the Human Domainome abundance scans (Beltran et al. 2025).
± gives the uncertainty stated by the source.

B1: Protein piccolo, residues 1058 to 1114; numbered along this chain, Q9Y6V0 (parent)
chain: TCPLCKTELNIGSKDPPNFNTCTECKNQVCNLCGFNPTPHLTEIQEWLCLNCQTQRA

Variants of: B1
Experiment: abundance fitness (aPCA) (normalised: wild type 0, dead -1); higher = more abundant; growth selection in yeast, the domain comes from the species named
Details: Homo sapiens

Abundance fitness: each site, then its substitutions
G34: P -0.63 ± 0.17; M -0.643 ± 0.12; L 0.043 ± 0.087; A -0.083 ± 0.15; T -1.02 ± 0.15; N -0.925 ± 0.35; K -0.794 ± 0.19; F -0.035 ± 0.12; I -0.885 ± 0.28; Y -0.15 ± 0.13; W -0.242 ± 0.12; V -0.037 ± 0.094; H -0.37 ± 0.24; S -0.106 ± 0.088; E -0.292 ± 0.17; D -0.075 ± 0.19; R -0.102 ± 0.099; Q -0.072 ± 0.15
Q45: D -0.254 ± 0.39; E -0.38 ± 0.31; G 0.037 ± 0.12; K 0.268 ± 0.28; R -0.003 ± 0.1; T -0.202 ± 0.15; F -0.127 ± 0.17; N 0.016 ± 0.29; I -0.047 ± 0.19; Y 0.047 ± 0.2; S -0.037 ± 0.12; L -0.093 ± 0.1; P -0.141 ± 0.18; W 0.233 ± 0.17; V 0.046 ± 0.14; M -0.015 ± 0.19; H -0.357 ± 0.23
F35: H 0.275 ± 0.15; P 0.285 ± 0.14; E 0.275 ± 0.14; Y 0.022 ± 0.15; Q 0.25 ± 0.15; W -0.288 ± 0.11; T 0.298 ± 0.14; N 0.066 ± 0.15; R 0.21 ± 0.087; L 0.175 ± 0.08; V 0.108 ± 0.092; C 0.019 ± 0.13; S 0.236 ± 0.084; D 0.218 ± 0.14; K 0.255 ± 0.15; G 0.175 ± 0.096; M 0.291 ± 0.12; A 0.139 ± 0.1
T38: I -0.143 ± 0.16
L41: R 0.2 ± 0.097; S 0.033 ± 0.093; Y 0.081 ± 0.18; T 0.109 ± 0.13; V 0.044 ± 0.091; Q 0.007 ± 0.17; P -0.037 ± 0.14; N 0.128 ± 0.2; W -0.133 ± 0.11; H -0.247 ± 0.2; K 0.176 ± 0.17; F 0.149 ± 0.12; I 0.188 ± 0.21; M -0.189 ± 0.12; E -0.015 ± 0.15; A 0.117 ± 0.11; D 0.004 ± 0.19; C 0.004 ± 0.14
C49: T -1.06 ± 0.26; Q -0.927 ± 0.17; I -1.05 ± 0.28; N -0.618 ± 0.28; D -0.597 ± 0.2; L -1 ± 0.14; H -0.761 ± 0.18; V -0.849 ± 0.14; R -0.782 ± 0.13; G -0.934 ± 0.14; E -1.01 ± 0.24; Y -0.958 ± 0.17; A -0.66 ± 0.13; P -0.418 ± 0.14; F -0.793 ± 0.24; W -0.884 ± 0.14
E46: F -0.363 ± 0.17; V -0.033 ± 0.12; D -0.415 ± 0.38; W -0.401 ± 0.18; A -0.176 ± 0.13; C -0.292 ± 0.16; Y -0.349 ± 0.25; L -0.124 ± 0.1; G -0.042 ± 0.12; Q 0.007 ± 0.17; K -0.079 ± 0.17; R -0.085 ± 0.1; T -0.083 ± 0.19
N51: F -0.306 ± 0.12; K -0.063 ± 0.22; S -0.247 ± 0.12; M -0.557 ± 0.2; H -0.146 ± 0.25; G -0.091 ± 0.14; P -0.284 ± 0.17; D -0.166 ± 0.24; I -0.566 ± 0.2; A -0.015 ± 0.16; V -0.326 ± 0.11; E -0.099 ± 0.21
N36: E 0.099 ± 0.12; M 0.033 ± 0.13; W -0.08 ± 0.11; C -0.054 ± 0.12; G 0.038 ± 0.087; F 0.044 ± 0.14; S -0.12 ± 0.095; D -0.093 ± 0.16; T -0.28 ± 0.14; A -0.097 ± 0.097; Q -0.011 ± 0.15; I -0.129 ± 0.14; H 0.313 ± 0.24; K 0.08 ± 0.14; V 0.068 ± 0.09
P39: Y -0.131 ± 0.14; C -0.115 ± 0.13; L -0.001 ± 0.084; N -0.214 ± 0.21; W -0.303 ± 0.11; K 0.193 ± 0.15; F 0.025 ± 0.16; R 0.008 ± 0.087; D -0.117 ± 0.18; V 0.092 ± 0.098; I -0.013 ± 0.17; S 0.069 ± 0.093; Q 0.099 ± 0.13; T -0.005 ± 0.13; A 0.018 ± 0.12; G -0.211 ± 0.1; H -0.393 ± 0.33
N31: R 0.012 ± 0.088; K 0.12 ± 0.16; W -0.19 ± 0.097; H 0.118 ± 0.18; V 0.045 ± 0.1; Q 0.014 ± 0.12; Y 0.011 ± 0.16; G 0.028 ± 0.096; I -0.121 ± 0.16; S 0.056 ± 0.098; T -0.173 ± 0.14; L 0.072 ± 0.083; M -0.147 ± 0.15; F 0.117 ± 0.13
L48: P -0.318 ± 0.17; F 0.09 ± 0.13; K -0.245 ± 0.18; I -0.105 ± 0.22; Y -0.112 ± 0.17; T -0.089 ± 0.14; Q -0.274 ± 0.19; S -0.063 ± 0.11
